PMC8228355, “SERS-Based Aptasensor for Rapid Quantitative Detection of SARS-CoV-2”

Biological target: RBD of SARS-CoV-2 spike protein (SARS-CoV-2, UniProt P0DTC2 319-541)
Assay: BLI; ka ([…]; kd ([…]; RBD 80-1200 nM; […]; BLI on streptavidin sensors, buffer and temperature not stated; […]
Settings: protein: commercial; label: 5'-biotin

B1: Biotin-RBD-1C (structured_DNA)
DNA: CAGCACCGACCTTGTGCTTTGGGAGTGCTGGTCCAAGGGCGTTAATGGACA
B1 was tested, and the Kd was 13 nM.

TTTGGGAGTGCTGGTCCAAGGGCGTTAATGGACA (structured_DNA) [Biotin-RBD-1C-sh] was tested, and the Kd was 330 nM.
